Experimental data as given in PMC10786891, “Massively parallel profiling of RNA-targeting CRISPR-Cas13d”.

T1: EsCas13d, nuclease-dead (Eubacterium siraeum, UniProt B0MS50, R295A;H300A;R849A;H854A)
T1 sequence: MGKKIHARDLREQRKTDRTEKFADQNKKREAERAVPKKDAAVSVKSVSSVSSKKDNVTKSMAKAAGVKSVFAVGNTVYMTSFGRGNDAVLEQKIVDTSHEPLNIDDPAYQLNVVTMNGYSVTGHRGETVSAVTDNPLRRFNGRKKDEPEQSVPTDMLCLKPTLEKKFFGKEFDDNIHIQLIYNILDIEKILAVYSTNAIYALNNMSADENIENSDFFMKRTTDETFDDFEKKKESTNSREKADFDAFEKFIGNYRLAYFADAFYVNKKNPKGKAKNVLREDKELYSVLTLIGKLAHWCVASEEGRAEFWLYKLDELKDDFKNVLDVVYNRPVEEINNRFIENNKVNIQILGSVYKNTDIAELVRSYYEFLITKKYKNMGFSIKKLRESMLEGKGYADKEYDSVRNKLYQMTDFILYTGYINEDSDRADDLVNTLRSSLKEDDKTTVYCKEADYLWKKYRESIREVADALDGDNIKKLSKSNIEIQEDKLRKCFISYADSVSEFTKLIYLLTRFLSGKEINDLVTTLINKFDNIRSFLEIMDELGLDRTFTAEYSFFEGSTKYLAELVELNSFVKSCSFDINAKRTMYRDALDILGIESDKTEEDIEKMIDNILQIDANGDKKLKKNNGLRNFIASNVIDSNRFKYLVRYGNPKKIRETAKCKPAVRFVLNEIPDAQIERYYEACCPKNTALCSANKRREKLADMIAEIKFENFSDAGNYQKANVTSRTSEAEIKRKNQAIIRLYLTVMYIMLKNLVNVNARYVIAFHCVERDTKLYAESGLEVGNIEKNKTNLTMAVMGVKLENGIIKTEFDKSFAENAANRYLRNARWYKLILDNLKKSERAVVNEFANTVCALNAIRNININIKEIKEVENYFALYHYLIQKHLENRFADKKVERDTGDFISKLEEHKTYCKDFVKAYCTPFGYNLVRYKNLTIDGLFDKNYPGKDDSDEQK

B1: target 1 MT 5'PFS UGC 3'PFS AAC (mixed)
RNA 1: CACCCGUGCAAAAAUGCAGGGGUCUAAAACUGAGCGGAUAACCUCUCUAUGG
RNA 2: GGGAAUGGAUCCACAUCUACGAAUUCUGCCCAUAGAGAGGUUAUCCGCUCAAACAGAUCGGAAGAGCACACGU
B2: target 1 MT 5'PFS UGC 3'PFS AAA (mixed)
RNA 1: CACCCGUGCAAAAAUGCAGGGGUCUAAAACUGAGCGGAUAACCUCUCUAUGG
RNA 2: GGGAAUGGAUCCACAUCUACGAAUUCUGCCCAUAGAGAGGUUAUCCGCUCAAAAAGAUCGGAAGAGCACACGU
B3: target 1 insA 3' of 8,insA 3' of 2 (mixed)
RNA 1: CACCCGUGCAAAAAUGCAGGGGUCUAAAACUGAGCGGAUAACCUCUCUAUGG
RNA 2: GGGAAUGGAUCCACAUCUACGAAUUCGUACCAUAGAGAGGUUAUACCGCUCAACCGAGAUCGGAAGAGCACACGU
B4: target 1 MT 5'PFS CAC 3'PFS CUA (mixed)
RNA 1: CACCCGUGCAAAAAUGCAGGGGUCUAAAACUGAGCGGAUAACCUCUCUAUGG
RNA 2: GGGAAUGGAUCCACAUCUACGAAUUCCACCCAUAGAGAGGUUAUCCGCUCACUAAGAUCGGAAGAGCACACGU
B5: target 1 MT 5'PFS GGG 3'PFS AUC (mixed)
RNA 1: CACCCGUGCAAAAAUGCAGGGGUCUAAAACUGAGCGGAUAACCUCUCUAUGG
RNA 2: GGGAAUGGAUCCACAUCUACGAAUUCGGGCCAUAGAGAGGUUAUCCGCUCAAUCAGAUCGGAAGAGCACACGU
B6: target 1 MT 5'PFS UAU 3'PFS UGC (mixed)
RNA 1: CACCCGUGCAAAAAUGCAGGGGUCUAAAACUGAGCGGAUAACCUCUCUAUGG
RNA 2: GGGAAUGGAUCCACAUCUACGAAUUCUAUCCAUAGAGAGGUUAUCCGCUCAUGCAGAUCGGAAGAGCACACGU
B7: target 1 MT 5'PFS UCC 3'PFS CUC (mixed)
RNA 1: CACCCGUGCAAAAAUGCAGGGGUCUAAAACUGAGCGGAUAACCUCUCUAUGG
RNA 2: GGGAAUGGAUCCACAUCUACGAAUUCUCCCCAUAGAGAGGUUAUCCGCUCACUCAGAUCGGAAGAGCACACGU
B8: target 1 MT 5'PFS GCA 3'PFS GGA (mixed)
RNA 1: CACCCGUGCAAAAAUGCAGGGGUCUAAAACUGAGCGGAUAACCUCUCUAUGG
RNA 2: GGGAAUGGAUCCACAUCUACGAAUUCGCACCAUAGAGAGGUUAUCCGCUCAGGAAGAUCGGAAGAGCACACGU
B9: target 1 MT 5'PFS GUC 3'PFS ACC (mixed)
RNA 1: CACCCGUGCAAAAAUGCAGGGGUCUAAAACUGAGCGGAUAACCUCUCUAUGG
RNA 2: GGGAAUGGAUCCACAUCUACGAAUUCGUCCCAUAGAGAGGUUAUCCGCUCAACCAGAUCGGAAGAGCACACGU
B10: target 1 MT 5'PFS GUG 3'PFS GCA (mixed)
RNA 1: CACCCGUGCAAAAAUGCAGGGGUCUAAAACUGAGCGGAUAACCUCUCUAUGG
RNA 2: GGGAAUGGAUCCACAUCUACGAAUUCGUGCCAUAGAGAGGUUAUCCGCUCAGCAAGAUCGGAAGAGCACACGU
B11: target 1 MT 5'PFS GGC 3'PFS UUG (mixed)
RNA 1: CACCCGUGCAAAAAUGCAGGGGUCUAAAACUGAGCGGAUAACCUCUCUAUGG
RNA 2: GGGAAUGGAUCCACAUCUACGAAUUCGGCCCAUAGAGAGGUUAUCCGCUCAUUGAGAUCGGAAGAGCACACGU
B12: target 1 MT 5'PFS GGG 3'PFS AUA (mixed)
RNA 1: CACCCGUGCAAAAAUGCAGGGGUCUAAAACUGAGCGGAUAACCUCUCUAUGG
RNA 2: GGGAAUGGAUCCACAUCUACGAAUUCGGGCCAUAGAGAGGUUAUCCGCUCAAUAAGAUCGGAAGAGCACACGU
B13: target 1 insU 3' of 22,insA 3' of 5 (mixed)
RNA 1: CACCCGUGCAAAAAUGCAGGGGUCUAAAACUGAGCGGAUAACCUCUCUAUGG
RNA 2: GGGAAUGGAUCCACAUCUACGAAUUCGUACUCAUAGAGAGGUUAUCCGACUCACCGAGAUCGGAAGAGCACACGU
B14: target 1 MT 5'PFS GAA 3'PFS ACC (mixed)
RNA 1: CACCCGUGCAAAAAUGCAGGGGUCUAAAACUGAGCGGAUAACCUCUCUAUGG
RNA 2: GGGAAUGGAUCCACAUCUACGAAUUCGAACCAUAGAGAGGUUAUCCGCUCAACCAGAUCGGAAGAGCACACGU
B15: target 1 MT 5'PFS GGG 3'PFS AUG (mixed)
RNA 1: CACCCGUGCAAAAAUGCAGGGGUCUAAAACUGAGCGGAUAACCUCUCUAUGG
RNA 2: GGGAAUGGAUCCACAUCUACGAAUUCGGGCCAUAGAGAGGUUAUCCGCUCAAUGAGAUCGGAAGAGCACACGU
B16: target 1 MT 5'PFS AAU 3'PFS CAU (mixed)
RNA 1: CACCCGUGCAAAAAUGCAGGGGUCUAAAACUGAGCGGAUAACCUCUCUAUGG
RNA 2: GGGAAUGGAUCCACAUCUACGAAUUCAAUCCAUAGAGAGGUUAUCCGCUCACAUAGAUCGGAAGAGCACACGU
B17: target 1 MT 5'PFS GGC 3'PFS UUU (mixed)
RNA 1: CACCCGUGCAAAAAUGCAGGGGUCUAAAACUGAGCGGAUAACCUCUCUAUGG
RNA 2: GGGAAUGGAUCCACAUCUACGAAUUCGGCCCAUAGAGAGGUUAUCCGCUCAUUUAGAUCGGAAGAGCACACGU
B18: target 1 MT 5'PFS CUU 3'PFS CAG (mixed)
RNA 1: CACCCGUGCAAAAAUGCAGGGGUCUAAAACUGAGCGGAUAACCUCUCUAUGG
RNA 2: GGGAAUGGAUCCACAUCUACGAAUUCCUUCCAUAGAGAGGUUAUCCGCUCACAGAGAUCGGAAGAGCACACGU
B19: target 1 MT 5'PFS AAG 3'PFS UCU (mixed)
RNA 1: CACCCGUGCAAAAAUGCAGGGGUCUAAAACUGAGCGGAUAACCUCUCUAUGG
RNA 2: GGGAAUGGAUCCACAUCUACGAAUUCAAGCCAUAGAGAGGUUAUCCGCUCAUCUAGAUCGGAAGAGCACACGU
B20: target 1 MT 5'PFS GAA 3'PFS ACG (mixed)
RNA 1: CACCCGUGCAAAAAUGCAGGGGUCUAAAACUGAGCGGAUAACCUCUCUAUGG
RNA 2: GGGAAUGGAUCCACAUCUACGAAUUCGAACCAUAGAGAGGUUAUCCGCUCAACGAGAUCGGAAGAGCACACGU
B21: target 1 MT 5'PFS GGG 3'PFS AUU (mixed)
RNA 1: CACCCGUGCAAAAAUGCAGGGGUCUAAAACUGAGCGGAUAACCUCUCUAUGG
RNA 2: GGGAAUGGAUCCACAUCUACGAAUUCGGGCCAUAGAGAGGUUAUCCGCUCAAUUAGAUCGGAAGAGCACACGU
B22: target 1 MT 5'PFS GUC 3'PFS ACG (mixed)
RNA 1: CACCCGUGCAAAAAUGCAGGGGUCUAAAACUGAGCGGAUAACCUCUCUAUGG
RNA 2: GGGAAUGGAUCCACAUCUACGAAUUCGUCCCAUAGAGAGGUUAUCCGCUCAACGAGAUCGGAAGAGCACACGU
B23: target 1 MT 5'PFS GUG 3'PFS GCU (mixed)
RNA 1: CACCCGUGCAAAAAUGCAGGGGUCUAAAACUGAGCGGAUAACCUCUCUAUGG
RNA 2: GGGAAUGGAUCCACAUCUACGAAUUCGUGCCAUAGAGAGGUUAUCCGCUCAGCUAGAUCGGAAGAGCACACGU
B24: target 1 insA 3' of 8,insC 3' of 1 (mixed)
RNA 1: CACCCGUGCAAAAAUGCAGGGGUCUAAAACUGAGCGGAUAACCUCUCUAUGG
RNA 2: GGGAAUGGAUCCACAUCUACGAAUUCGUACCAUAGAGAGGUUAUACCGCUCACCCGAGAUCGGAAGAGCACACGU
B25: target 1 MT 5'PFS CUG 3'PFS CAC (mixed)
RNA 1: CACCCGUGCAAAAAUGCAGGGGUCUAAAACUGAGCGGAUAACCUCUCUAUGG
RNA 2: GGGAAUGGAUCCACAUCUACGAAUUCCUGCCAUAGAGAGGUUAUCCGCUCACACAGAUCGGAAGAGCACACGU
B26: target 1 MT 5'PFS GCG 3'PFS UGU (mixed)
RNA 1: CACCCGUGCAAAAAUGCAGGGGUCUAAAACUGAGCGGAUAACCUCUCUAUGG
RNA 2: GGGAAUGGAUCCACAUCUACGAAUUCGCGCCAUAGAGAGGUUAUCCGCUCAUGUAGAUCGGAAGAGCACACGU
B27: target 1 MT 5'PFS CAC 3'PFS CUG (mixed)
RNA 1: CACCCGUGCAAAAAUGCAGGGGUCUAAAACUGAGCGGAUAACCUCUCUAUGG
RNA 2: GGGAAUGGAUCCACAUCUACGAAUUCCACCCAUAGAGAGGUUAUCCGCUCACUGAGAUCGGAAGAGCACACGU
B28: target 1 MT 5'PFS UCC 3'PFS CUG (mixed)
RNA 1: CACCCGUGCAAAAAUGCAGGGGUCUAAAACUGAGCGGAUAACCUCUCUAUGG
RNA 2: GGGAAUGGAUCCACAUCUACGAAUUCUCCCCAUAGAGAGGUUAUCCGCUCACUGAGAUCGGAAGAGCACACGU

Target: T1, EsCas13d, nuclease-dead
Experiment: crRNA (strand 1, pre-loaded); Mg2+; 40 mM Tris-HCl pH 7.5, 150 mM NaCl, 6 mM MgCl2, 1 mM DTT, 0.1% Tween-20, 0.2 mg/ml BSA; 25 C; 10 min per concentration, then washed
Details: tags: His6-TwinStrep-SUMO cleaved; N-terminal SNAP kept (SNAP-Surface 488); label: 3' end held by stalled T7 RNA polymerase

Binder | Kd
B1 | ~40 nM
B2 | ~50 nM
B3 | 17.9 ± 0.6 nM
B4 | 16 ± 5 nM
B5 | 35.5 ± 9.5 nM
B6 | ~59.5 nM
B7 | ~24 nM
B8 | 80 ± 40 nM
B9 | 25.8 ± 4.2 nM
B10 | 26 ± 4 nM
B11 | 9 ± 1.2 nM
B12 | 32 ± 6.5 nM
B13 | 18.8 ± 1.6 nM
B14 | ~80 nM
B15 | 26.5 ± 4 nM
B16 | 100 ± 45 nM
B17 | 11.3 ± 1.85 nM
B18 | 74 ± 30 nM
B19 | 12.1 ± 3.65 nM
B20 | ~82 nM
B21 | 17.3 ± 2.1 nM
B22 | 25 ± 6.6 nM
B23 | 7 ± 0.7 nM
B24 | 14.7 ± 0.7 nM
B25 | 5.25 ± 1.6 nM
B26 | 41.5 ± 8.5 nM
B27 | ~17 nM
B28 | 14.5 ± 4.5 nM
